Measurements as given in the supplement of paper PMC9112550, “Optimization of the antimicrobial peptide Bac7 by deep mutational scanning” (BMC Biology, 2022).

test system: Escherichia coli TOP10; assay: shrunken log2 fold change of peptide-encoding DNA abundance (4.5 h post-induction vs induction); higher = less antimicrobial activity (less host growth inhibition); conditions: time post-induction: 4.5 h; library: site-saturation at positions 5, 18, 19, 20
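Further: peptides expressed intracellularly from a pBAD plasmid library in pooled LB shake-flask culture, induced with 0.3% L-arabinose, DNA abundance read by NGS, three biological replicates, DESeq2 with apeglm shrinkage.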

Point of comparison: RRIRERPPRLPRPRPRPCQIPRP, “shrunken log2 fold change” value -0.193. Against it:
- RRIRDRPPRLPRPRPRPDYAPRP — higher, 0.016
- RRIRRRPPRLPRPRPRPCFWPRP — higher, 0.406
- RRIRSRPPRLPRPRPRPEWIPRP — higher, 0.021
- RRIRERPPRLPRPRPRPGIAPRP — within 0.2 log units, -0.183
- RRIRCRPPRLPRPRPRPTFLPRP — lower, -0.475
- RRIRRRPPRLPRPRPRPGFWPRP — higher, 0.333
- RRIRMRPPRLPRPRPRPLDPPRP — higher, 0.146
- RRIRIRPPRLPRPRPRPFIAPRP — lower, -0.719
- RRIRVRPPRLPRPRPRPFQMPRP — within 0.2 log units, -0.333
- RRIRIRPPRLPRPRPRPCYIPRP — within 0.2 log units, -0.27
- RRIRRRPPRLPRPRPRPHNMPRP — lower, -0.697
- RRIRMRPPRLPRPRPRPAREPRP — higher, 1.86
- RRIRHRPPRLPRPRPRPGEVPRP — higher, 0.0396
- RRIRCRPPRLPRPRPRPFSLPRP — within 0.2 log units, -0.239
- RRIRCRPPRLPRPRPRPVLNPRP — lower, -0.396
- RRIRRRPPRLPRPRPRPFPIPRP — higher, 0.199
- RRIRNRPPRLPRPRPRPYFPPRP — within 0.2 log units, -0.143
- RRIRNRPPRLPRPRPRPLKHPRP — within 0.2 log units, -0.239
- RRIRVRPPRLPRPRPRPWHGPRP — within 0.2 log units, -0.121
- RRIRRRPPRLPRPRPRPYDQPRP — within 0.2 log units, -0.0875
- RRIRSRPPRLPRPRPRPSYLPRP — lower, -0.707
- RRIRFRPPRLPRPRPRPNTRPRP — within 0.2 log units, -0.39
- RRIRLRPPRLPRPRPRPNDGPRP — within 0.2 log units, -0.127
- RRIRQRPPRLPRPRPRPCLKPRP — within 0.2 log units, -0.286
- RRIRFRPPRLPRPRPRPPLYPRP — within 0.2 log units, -0.0579
- RRIRFRPPRLPRPRPRPKDDPRP — within 0.2 log units, -0.052
- RRIRARPPRLPRPRPRPGCMPRP — higher, 0.727
- RRIRSRPPRLPRPRPRPTPVPRP — higher, 0.381
- RRIRTRPPRLPRPRPRPSDYPRP — within 0.2 log units, -0.278
- RRIRGRPPRLPRPRPRPHLYPRP — higher, 0.155
- RRIRVRPPRLPRPRPRPMYPPRP — lower, -0.413
- RRIRRRPPRLPRPRPRPQDTPRP — within 0.2 log units, -0.321
- RRIRKRPPRLPRPRPRPWDVPRP — higher, 0.0155
- RRIRIRPPRLPRPRPRPFHKPRP — within 0.2 log units, -0.196
- RRIRTRPPRLPRPRPRPVWTPRP — higher, 0.03
- RRIRFRPPRLPRPRPRPRFGPRP — within 0.2 log units, -0.0656
- RRIRFRPPRLPRPRPRPDQMPRP — within 0.2 log units, -0.155
- RRIRKRPPRLPRPRPRPHQSPRP — higher, 0.226
- RRIRFRPPRLPRPRPRPCWYPRP — within 0.2 log units, -0.225
- RRIRVRPPRLPRPRPRPQLGPRP — within 0.2 log units, -0.0234
- RRIRSRPPRLPRPRPRPKRTPRP — higher, 0.312
- RRIRQRPPRLPRPRPRPMIDPRP — lower, -0.517
- RRIRPRPPRLPRPRPRPWLAPRP — higher, 0.343
- RRIRLRPPRLPRPRPRPYCFPRP — lower, -0.909
- RRIRRRPPRLPRPRPRPQRGPRP — higher, 0.399
- RRIRVRPPRLPRPRPRPQRSPRP — lower, -0.431
- RRIRFRPPRLPRPRPRPMCRPRP — within 0.2 log units, -0.218
- RRIRERPPRLPRPRPRPEAGPRP — higher, 0.0425
- RRIRFRPPRLPRPRPRPMPFPRP — within 0.2 log units, -0.0201
- RRIRKRPPRLPRPRPRPTIMPRP — within 0.2 log units, -0.0223
- RRIRMRPPRLPRPRPRPQEGPRP — higher, 0.0197
- RRIRRRPPRLPRPRPRPHFHPRP — within 0.2 log units, -0.217
- RRIRCRPPRLPRPRPRPRDYPRP — within 0.2 log units, 0.00558
- RRIRDRPPRLPRPRPRPECFPRP — higher, 1.46
- RRIRNRPPRLPRPRPRPLYWPRP — lower, -0.437
- RRIRHRPPRLPRPRPRPPKFPRP — within 0.2 log units, -0.223
- RRIRARPPRLPRPRPRPGTQPRP — higher, 0.316
- RRIRWRPPRLPRPRPRPCIKPRP — higher, 0.0427
- RRIRQRPPRLPRPRPRPNKEPRP — higher, 0.00917
- RRIRTRPPRLPRPRPRPPKTPRP — higher, 0.142
- RRIRQRPPRLPRPRPRPFQWPRP — higher, 0.0154
- RRIRNRPPRLPRPRPRPWKIPRP — higher, 0.089
- RRIRYRPPRLPRPRPRPTDFPRP — within 0.2 log units, -0.325
- RRIRPRPPRLPRPRPRPHRVPRP — higher, 0.164
- RRIRARPPRLPRPRPRPRVCPRP — higher, 0.0904
- RRIRHRPPRLPRPRPRPEHKPRP — within 0.2 log units, 0.000824
- RRIRARPPRLPRPRPRPDWEPRP — higher, 0.334
- RRIRWRPPRLPRPRPRPELMPRP — higher, 0.0289
- RRIRQRPPRLPRPRPRPCPGPRP — within 0.2 log units, -0.0035
- RRIRCRPPRLPRPRPRPKHPPRP — within 0.2 log units, -0.0559
- RRIRMRPPRLPRPRPRPLRCPRP — higher, 1.61
- RRIRLRPPRLPRPRPRPWYFPRP — within 0.2 log units, -0.231
- RRIRTRPPRLPRPRPRPIWFPRP — within 0.2 log units, -0.033
- RRIRPRPPRLPRPRPRPRNIPRP — within 0.2 log units, -0.222
- RRIRGRPPRLPRPRPRPTNLPRP — within 0.2 log units, -0.0172
- RRIRFRPPRLPRPRPRPWKRPRP — within 0.2 log units, -0.0222
- RRIRFRPPRLPRPRPRPWSKPRP — within 0.2 log units, -0.079
- RRIRFRPPRLPRPRPRPFYHPRP — lower, -0.727
- RRIRLRPPRLPRPRPRPKALPRP — within 0.2 log units, -0.224
- RRIRCRPPRLPRPRPRPEAMPRP — higher, 0.536
- RRIRDRPPRLPRPRPRPKDYPRP — within 0.2 log units, -0.192
- RRIRWRPPRLPRPRPRPYLAPRP — within 0.2 log units, -0.211
- RRIRFRPPRLPRPRPRPRSAPRP — higher, 0.379
- RRIRGRPPRLPRPRPRPPMMPRP — higher, 0.626
- RRIRRRPPRLPRPRPRPTFHPRP — higher, 0.0529
- RRIRFRPPRLPRPRPRPWWEPRP — higher, 0.0381
- RRIRARPPRLPRPRPRPFKGPRP — within 0.2 log units, -0.104
- RRIRVRPPRLPRPRPRPHENPRP — within 0.2 log units, -0.38
- RRIRWRPPRLPRPRPRPISRPRP — within 0.2 log units, -0.116
- RRIRNRPPRLPRPRPRPKNTPRP — lower, -0.462
- RRIRRRPPRLPRPRPRPILWPRP — higher, 0.0428
- RRIRNRPPRLPRPRPRPKFYPRP — lower, -0.83
- RRIRLRPPRLPRPRPRPRSVPRP — within 0.2 log units, -0.0722
- RRIRERPPRLPRPRPRPKGFPRP — higher, 0.0527
- RRIRSRPPRLPRPRPRPKHYPRP — within 0.2 log units, -0.233
- RRIRYRPPRLPRPRPRPNLWPRP — within 0.2 log units, 0.00221
- RRIRGRPPRLPRPRPRPTLQPRP — higher, 0.779
- RRIRKRPPRLPRPRPRPHEMPRP — higher, 0.0317
- RRIRARPPRLPRPRPRPQQFPRP — higher, 0.097
- RRIRERPPRLPRPRPRPAHCPRP — higher, 0.0518
- RRIRMRPPRLPRPRPRPQMHPRP — higher, 0.947
- RRIRCRPPRLPRPRPRPMANPRP — higher, 0.0226
- RRIRDRPPRLPRPRPRPYHCPRP — within 0.2 log units, -0.00783
- RRIRGRPPRLPRPRPRPTDRPRP — higher, 0.0231
- RRIRIRPPRLPRPRPRPTCSPRP — within 0.2 log units, -0.371
- RRIRARPPRLPRPRPRPKDNPRP — higher, 0.153
- RRIRPRPPRLPRPRPRPLTEPRP — higher, 0.0389
- RRIRVRPPRLPRPRPRPFLTPRP — within 0.2 log units, -0.0925
